This is an account of results in patent US20250228955A1.

The target of the experiment is recombinant HIV-1 trimeric spike (BG505 SOSIP.664) (HIV-1).

B1: ODIN-1 (VHH-72.18 with UL-CDR3 from NC-Cow1 bovine IgG in FR2 loop) (bispecific antibody, V domains shown)
VH: MGWFRQTNKKECPEDYTYNPRCPQQYGWSDCDCMGDRFGGYCRQDGCSNYIHRSTREFVATISWSGGSTYYTDSVKGRFTISRDNAKNTVYLQMNSLKPDDTAVYYCAAAGLGTVVSEWDYDYDYWGQGTQVTVSS
As usually defined, the Kd is the equilibrium constant for the complex coming apart. B1: the Kd amounted to 30 nM.
